The record followed here is PMC7821230.

For orientation: stoichiometry N means the number of molecules, sites or subunits per partner or assembly.

The target in the experiment is BCL‐xL (UniProt Q07817). As to the kind of experiment: crystal structure; co-crystals of Affimer and target, solved by molecular replacement with Phaser.

“BCL‐xL (from UniProt Q07817-1 1-233) (natural protein)” registered a stoichiometry N of 2.
